This is an account of results in patent US20200140551A1.

As a reminder, the Kd is the concentration at which binding is half-saturated. A high value points to a looser complex.

Experiment [1] has as its target cynomolgus ICOS (cynomolgus). In words: Biacore (SPR), cyno ICOS; format not described. Background: SPR reads the build-up and loss of mass on a sensor chip optically.
In experiment [2] the target is human ICOS (human) (UniProt Q9Y6W8). In words: Biacore (SPR), human ICOS; format not described.
Sequence of human ICOS (human) (Q9Y6W8 21-140 limits assumed): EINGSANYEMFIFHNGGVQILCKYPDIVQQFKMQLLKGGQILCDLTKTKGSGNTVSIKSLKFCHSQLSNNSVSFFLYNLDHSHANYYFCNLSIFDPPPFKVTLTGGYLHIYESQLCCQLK

Sequence of cynomolgus ICOS (cynomolgus) (A0A2K5 entry or part of it limits assumed): as the sequence (Q9Y6W8 21-140 limits assumed) above, with H81R counted along it

B1: murine anti-human ICOS mAb clone 314.8 (antibody, from another filing, V domains shown)
VH: QVQLQQPGTELMKPGASVKLSCKASGYTFTTYWMHWVKQRPGQGLEWIGEIDPSDSYVNYNQNFKGKATLTVDKSSSTAYIQLSSLTSEDSAVYFCARSPDYYGTSLAWFDYWGQGTLVTVST
VL: DIVMTQAAPSVPVTPGESVSISCRSSKSPLHSNGNIYLYWFLQRPGQSPQLLIYRMSNLASGVPDRFSGSGSGTTFTLKISRVEAEDVGVYYCMQHLEYPYTFGGGTKLEIK
For the molecule B1, the Kd in experiment [1] amounted to 9.3 nM; in experiment [2], 17 nM.
